Several values for one entry are separate records, joined by “and”; a condition that tells them apart may be missing. Identical values can stand only once. Like-named read-outs stand apart in the source and are kept apart here. One block for each molecule: values may come before it.
What was measured:
[1] = target: alpha/beta-tubulin (Saccharomyces cerevisiae) (UniProt P09733); conditions: cited from earlier work
[2] = target: alpha/beta-tubulin (Saccharomyces cerevisiae) (UniProt P09733); conditions: cited from earlier work; remark: listed apart in the source
[3] = target: biotinylated polymerization-blocked yeast αβ-tubulin, LR1 (β: T175R,V179R) (yeast) (UniProt P09733); assay: BLI; biotinylated polymerization-blocked tubulin immobilised on streptavidin (SA) biosensors, OctetR8; TOG2 2.3 to 200 nM in solution; 90 mM PIPES, 10 mM NaCl, 1 mM MgCl2, 1 mM EGTA, 1 mM GTP, 0.1% BSA, 0.005% triton X-100; association 300 s, dissociation 300 s; 1:1 model, global kinetic fit and steady-state amplitudes

Molecule: Stu2 TOG2 (from UniProt P46675)
Kd [1]: 160 nM

Molecule: Stu2 TOG1 (from UniProt P46675)
Kd [2]: 70 nM

Kd [3]: 8.9 nM and 9.6 nM | koff [3]: 0.03 s⁻¹ | kon [3]: 3.2e+06 M⁻¹ s⁻¹
B1: Stu2-TOG2 (318–560) (domain or fragment)
chain: MLPEETILDKLPKDFQERITSSKWKDRVEALEEFWDSVLSQTKKLKSTSQNYSNLLGIYGHIIQKDANIQAVALAAQSVELICDKLKTPGFSKDYVSLVFTPLLDRTKEKKPSVIEAIRKALLTICKYYDPLASSGRNEDMLKDILEHMKHKTPQIRMECTQLFNASMKEEKDGYSTLQRYLKDEVVPIVIQIVNDTQPAIRTIGFESFAILIKIFGMNTFVKTLEHLDNLKRKKIEETVKTL
